Laboratory results taken from patent US20260356933 (published 2026).
Changes are numbered by the printed parent chain.

B1: SIL-3B7 (antibody, V domains shown)
VH: EVQLVESGGGLVQAGGSLRLSCAASARTFSNYAMGWFRQAPGKEREFVAGISWSGGYTSYADSVKGRFTISRDNAKNTVALEMNSLKPEDTAVYYCAAEGVIDELPIKTMRYEYDYWGQGTQVTVSS
B2: SIL-2D8 (antibody, V domains shown)
VH: EVQLVESGGGLVQAGGSLRLSCTASGHNADTYAMGWFRQAPGKEREFVTGISWTGVGTYIADSVKGRFTISRDNAKNTVYLQMNSLKPEDTAVYRCAAGSDYSDSHYDKSYEYDYWGQGTQVTVSS
B3: SIL-2F5 (antibody, V domains shown)
VH: B2 VH with T23A, H27R, N28A, A40S, K43S, E44R, V56S, I60Y, N74T, R95Y
B4: SIL-2E4 (antibody, V domains shown)
VH: EVQLVESGGGLVQPGGSLRLSCAASGSIFDDHAIGWFRQAPGKEREGVSSIMTSDDSTHYADSVKGRFTISRDKAKNTVYLQMNNLKPEDTAVYYCAATDVFGLQYSSFLKSYEYDYWGQGTQVTVSS
B5: SIL-3B6 (antibody, V domains shown)
VH: B4 VH with I70V, N85D
B6: SIL-3E7 (antibody, V domains shown)
VH: EVQLVESGGGLVQAGGSLRLSCAASARTFSNYALGWFRQVPGKEREFVAGITWSGDNTYYADSVKDRFTISRDNAKNTVWLQMNSLRPEDTAVYICAAEAVLEDKVAVSTMRYEYDYWGQGTQVTVSS
B7: SIL-2E7 (antibody, V domains shown)
VH: EVQLVESGGGLVQAGGSLRLSCAASGRTFSKNTMGWFRQAPGKEREFVAAISWSVGSTYYGDSVNGRFTISRDDAKNTVYLQMNSLKPEDTAIYYCAADSSHYMLHPELREYDYWGQGTQVTVSS
B8: SIL-2D1 (antibody, V domains shown)
VH: EVQLVESGGGSVQPGGSLRLSCAASGFTLADESSGWFRQAPGKEREGVSCISITDGITYYADSVKGRFTISRDNAKNTLYLQMNSLKPEDTAVYYCATGNPYCSGHAGTEYDDWGQGTQVTVSS

molecular target: IL6 (human, UniProt P05231); experiment: ELISA, apparent
Sequence (P05231 30-212): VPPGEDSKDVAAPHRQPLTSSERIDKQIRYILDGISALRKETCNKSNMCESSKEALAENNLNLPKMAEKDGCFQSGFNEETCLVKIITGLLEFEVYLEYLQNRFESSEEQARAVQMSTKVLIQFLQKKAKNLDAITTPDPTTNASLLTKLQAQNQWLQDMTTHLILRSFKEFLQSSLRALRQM

Compared with B1, B2 is lower in Kd: over 1000 nM for the first, 5 nM for the second.

Going from B3 to B4, the Kd rises from 1 nM to over 1000 nM.

Compared with B5, B6 is higher in Kd: 20 nM for the first, over 1000 nM for the second. The first binds more tightly here.

First: B7
Second: B8
The Kd of the first is 40-fold lower: 2 nM for the first, 80 nM for the second.
